The record followed here is article PMC7948961, “Proteomic identification and validation of novel interactions of the putative tumor suppressor PRELP with membrane proteins including IGFI-R and p75NTR” (The Journal of Biological Chemistry, 2021).

First the molecules themselves.
B1: Recombinant PRELP (rPRELP), human PRELP with a C-terminal FLAG tag, from Mimic Sf9 cells (natural protein, UniProt P51888 21-382, looked up)
chain: QPTRRPRPGTGPGRRPRPRPRPTPSFPQPDEPAEPTDLPPPLPPGPPSIFPDCPRECYCPPDFPSALYCDSRNLRKVPVIPPRIHYLYLQNNFITELPVESFQNATGLRWINLDNNRIRKIDQRVLEKLPGLVFLYMEKNQLEEVPSALPRNLEQLRLSQNHISRIPPGVFSKLENLLLLDLQHNRLSDGVFKPDTFHGLKNLMQLNLAHNILRKMPPRVPTAIHQLYLDSNKIETIPNGYFKSFPNLAFIRLNYNKLTDRGLPKNSFNISNLLVLHLSHNRISSVPAINNRLEHLYLNNNSIEKINGTQICPNDLVAFHDFSSDLENVPHLRYLRLDGNYLKPPIPLDLMMCFRLLQSVVI
notes: Proline and arginine-rich end leucine-rich repeat protein (PRELP), human; secreted into the supernatant; No cleavage of the FLAG tag is described; source: Mimic Sf9 (baculovirus), purified from the supernatant (DDDDK-tagged Protein Purification Gel twice, Benzonase, SEC)

In test [1] the target is T1, Recombinant, soluble IGFI-R (rsIGFI-R), extracellular domain of human IGFI-R (residues 1-905) with a … (human, UniProt P08069 31-935).
T1 construct: Insulin-like growth factor 1 receptor, human, extracellular domain, residues 1-905; 31-935 of the precursor P08069; also called extracellular domain of IGFI-R; source: ExpiCHO, transiently transfected, purified from the supernatant (Ni-NTA, SEC)
In words: SPR; Biacore 2000; rPRELP immobilised by amine coupling on CM5 at around 4000 RU; rsIGFI-R or rsp75NTR injected at 30 μl/min; 10 mM HEPES pH 7.5, 150 mM NaCl, 0.05% Tween-20, 15 °C; KD from fitting the equilibrium curve, three independent measurements. Particulars: both partners purified.

The target in test [2] is B1. Described as above. The note with it: both partners purified.

Turning to B1, the Kd in test [1] worked out at 6.8 µM.

B2: Recombinant, soluble p75NTR (rsp75NTR), extracellular domain of human p75NTR (residues 1-161) with a C-terminal hexahistidine tag (domain or fragment)
chain: KEACPTGLYTHSGECCKACNLGEGVAQPCGANQTVCEPCLDSVTFSDVVSATEPCKPCTECVGLQSMSAPCVEADDAVCRCAYGYYQDETTGRCEACRVCEAGSGLVFSCQDKQNTVCEECPDGTYSDEANHVDPCLPCTVCEDTERQLRECTRWADAECE
modifications: Printed residues 1-161 are read as mature numbering (signal 1-28, offset +28): 161+28=189 falls at the end of the fourth cysteine-rich repeat, and the same paper's IGFI-R 1-905 is mature numbering …
Turning to B2, the Kd in test [2] amounted to 12.1 µM.
